Experimental data reported in PMC8049080.

Legend:
[1] = biological target: dopamine D2 receptor, long isoform, p.Ile212Phe variant (UniProt P14416); experiment: FRET or BRET; HEK293 cells 48 hours after transfection, in phosphate-buffered saline with 0.1 mM CaCl2 and 0.5 mM MgCl2, ~100,000 cells/well; quinpirole (20-minute stimulation) followed by coelenterazine h at room temperature; agonist-induced recruitment, expressed as percentage of maximum recruitment by D2-WT
[2] = biological target: dopamine D2 receptor, short isoform, p.Ile212Phe variant (UniProt P14416); experiment: as above

arrestin3 (from UniProt P32121 1-409) (natural protein)
maximal recruitment, percent of that by D2L-WT [1]: 48% | maximal recruitment, percent of that by D2S-WT [2]: 68%
